Bridge positions count the residues as written; N and C are the ends. Square brackets hold non-standard residues; d marks the D form. R8 = C=CCCCCCC[C@@](C)(N)C(=O)O; S5 = C=CCCC[C@](C)(N)C(=O)O
Target: T1, recombinant HDM2 17-125 (human, UniProt Q00987 17-125)
T1 construct: range 17-125
Test: fluorescence polarization competition: unlabeled peptide titrated against FITC-WT p53 14-29 (25 nM) bound to HDM2 17-125
Protocol: (§1) FIG. 12 Competition by fluorescence polarization. Fluoresceinated, wild type p53₁₄₋₂₉ (25 nM) was incubated with recombinant HDM2₁₇₋₁₂₅. Unlabeled SAH-p53s were titrated into the mixture, and displacement of the labeled ligand was measured by fluorescence polarization.
as §1, with “The ability of various SAH-p53s to compete with wild-type p53₁₄₋₂₉ for binding to HDM2₁₇₋₁₂₅ was assessed as follows.” for “FIG. 12 Competition by fluorescence polarization.”

- binding result: binds
B1: SAH-p53-4 (peptide)
peptide: Ac-LSQETF[R8]DLWKLL[S5]EN-NH2
modifications: staple 7-14
notes: the FITC-labeled form is m4; also called unlabeled SAH-p53-4; Ac-SAH-p53-4

From US20170081379A1 (Dana-Farber, published 2017)
